# T1: NorRΔGAF (Escherichia coli, UniProt P37013 178-504)
# T1 sequence: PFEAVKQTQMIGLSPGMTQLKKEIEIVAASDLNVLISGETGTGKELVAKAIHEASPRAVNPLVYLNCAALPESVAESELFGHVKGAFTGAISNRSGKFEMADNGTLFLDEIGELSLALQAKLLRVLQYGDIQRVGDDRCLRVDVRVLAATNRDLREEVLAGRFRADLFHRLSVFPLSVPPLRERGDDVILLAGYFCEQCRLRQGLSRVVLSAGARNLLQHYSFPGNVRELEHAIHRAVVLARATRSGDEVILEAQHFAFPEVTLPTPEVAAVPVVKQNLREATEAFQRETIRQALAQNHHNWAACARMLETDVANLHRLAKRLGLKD
# B1: NorR1 21 bp (dsDNA)
# DNA 1: GATAGTCATTTTGACTACTCA
# DNA 2: TGAGTAGTCAAAATGACTATC
# B2: NorR123 66 bp (dsDNA)
# DNA 1: TCACTGTCAATTTGACTATAGATATTGTCATATCGACCATTTGATTGATAGTCATTTTGACTACTC
# DNA 2: GAGTAGTCAAAATGACTATCAATCAAATGGTCGATATGACAATATCTATAGTCAAATTGACAGTGA
# Tests used:
# [1] = target: NorRΔGAF (GAF domain deleted form of E. coli NorR) (E. coli); test: SEC
# [2] = target: NorRΔGAF (GAF domain deleted form of E. coli NorR) (E. coli); test: negative-stain electron microscopy
# [3] = target: NorRΔGAF (GAF domain deleted form of E. coli NorR) (E. coli)
# NorRΔGAF [4] = target: T1, NorRΔGAF; test: gel filtration
# NorRΔGAF [5] = target: T1, NorRΔGAF; test: EMSA
molecule,measurement,setting,value
NorRΔGAF (GAF domain deleted form of E. coli NorR) (domain or fragment),stoichiometry N,[1],2
same,stoichiometry N,[2],6
same,ATPase activity against NorRΔGAF concentration with 21 bp NorR1 DNA (1:1): Keff,[3],8.4 µM
B1,binding result,NorRΔGAF [4],binds
B2,Kd,NorRΔGAF [5],174 nM

# From paper PMC2831303
